Consider one molecule from US20150064179A1 (BIOTEST, published 2015).

Assay [1] has as its target T1, human interleukin 10 (R&D Systems, Cat. No. 217-IL/CF) (human, UniProt P22301 19-178).
T1 construct: also called hIL-10; human IL-10
Briefly: SPR Biacore 2000, hIL-10 immobilised on CM-5 chip. The method, then: (§1) Surface plasmon resonance analysis was used to measure the association and dissociation rate constants for binding of the different antibodies (murine, chimeric, 3 humanized variants) towards hIL-10 using BIACORE 2000 (Biacore AB, Uppsala, Sweden). hIL-10 was immobilized on a CM-5 sensor chip according to manufacturers conditions. hIL-10 was immobilized by adding a 50 μl aliquot of 20 μg/ml at a flow rate of 5 μl/minute resulting in an immobilization density of 320RU. The immobilized hIL-10 surface was regenerated in a two step cycle by using 0.1M carbonate buffer pH 9.2 and 0.01M HCL/1M NaCl at flow rates of 50 μl/minute for one minute each. Each antibody sample was analyzed at least 4 times in antibody concentration ranges of 20-0.15 μg/ml. Calculations from the sensograms were performed by using the BIA evaluation version 3 (1999) software.
However, slight differences are detectable. […] Slight differences in association and dissociation rates are also detectable.
(In general: Surface plasmon resonance follows binding to a sensor surface in real time, without labels.)

In assay [2] the target is T1, human interleukin 10 (R&D Systems, Cat. …). Put plainly: SPR Biacore T100, BT-063 immobilised by amine coupling, rhIL-10 as analyte, assay no 1.
Assay [3] deals with T2, recombinant Cynomolgus IL-10 (Cynomolgus, UniProt P79338 19-178).
T2 construct: also called rCIL-10
Briefly: SPR Biacore T100, BT-063 immobilised by amine coupling, rCIL-10 as analyte, assay no 1. How it is done: (§2) The affinity of the BT-63 variant 3 (hVH26/hVL7) to Cynomolgus IL-10 was analysed by additional surface plasmon resonance experiments using a Biacore T100 (Biacore AB, Uppsala, Sweden).
(§3) BT-063 was diluted in 10 mM acetate pH5.5 to 5 μg/mL and immobilized using amine coupling procedure to obtain a final level of about 1000 RU. Regeneration of the sensor chip surface was obtained injecting 10 mM Glycine-HCl pH 1.8 for 30 s. Samples were injected in different concentrations over the flow cell as well as over the reference cell. Signals obtained by the reference cell were subtracted from the signals obtained by the detector flow cell and resulting binding profiles were evaluated using a 1:1 Langmuir-binding model.

For assay [4], the target named is T2, recombinant Cynomolgus IL-10. Briefly: SPR Biacore T100, BT-063 immobilised by amine coupling, rCIL-10 as analyte, assay no 3. How it is done:
as §2, §3

Assay [5] has the same target. Put plainly: SPR Biacore T100, BT-063 immobilised by amine coupling, rCIL-10 as analyte, assay no 2. The method, then:
as §2, §3

Assay [6] deals with T1, human interleukin 10 (R&D Systems, Cat. …). Briefly: SPR Biacore 2000, hIL-10 immobilised on CM-5 chip, antibody as analyte, n=5. How it is done:
as §1

In assay [7] the target is T2, recombinant Cynomolgus IL-10. Briefly: SPR Biacore T100, BT-063 immobilised by amine coupling, IL-10 as analyte, 1:1 Langmuir model, average. How it is done:
as §2, §3

In general, Kd refers to the constant that tells how readily two partners part at equilibrium. A word on the koff: it is a measure of how fast the partners let go of each other. In general, kon refers to the second-order rate constant of association.

T1 sequence (P22301 19-178): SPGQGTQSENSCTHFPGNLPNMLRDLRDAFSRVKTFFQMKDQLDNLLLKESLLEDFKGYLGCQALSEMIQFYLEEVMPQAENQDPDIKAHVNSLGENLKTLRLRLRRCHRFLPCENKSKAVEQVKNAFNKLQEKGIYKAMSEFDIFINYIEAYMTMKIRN
T2 sequence (P79338 19-178 limits assumed): as the sequence (P22301 19-178) above, with H14R, N21H, L46I, Q83H, A89E, N129S, I136V counted along it

B1: BT-063-3 (hVH26/hVL7) (antibody, V domains shown)
VH: EVQLVESGGGLVQPGGSLRLSCAASGFSFATYGVHWVRQSPGKGLEWLGVIWRGGSTDYSAAFMSRLTISKDNSKNTVYLQMNSLRAEDTAVYFCAKQAYGHYMDYWGQGTSVTVSS
VL: DVVMTQSPLSLPVTLGQPASISCRSSQNIVHSNGNTYLEWYLQRPGQSPRLLIYKVSNRFSGVPDRFSGSGSGTDFTLKISRVEAEDVGVYYCFQGSHVPWTFGQGTKVEIK
notes: also called BT-63 variant 3; BT-063 (variant hVH26/hVL7)
Regarding B1, the “factor of reduced affinity compared to the murine B-N10” value in assay [1] is ~3 fold. Moreover, the Kd in assay [2] was determined as 4.6 nM; in assay [3], 0.196 nM; in assay [4] it was 0.191 nM; in assay [5] it was 0.195 nM; in assay [6] it was 2.91 nM; in assay [7], 0.194 nM. Also, the koff in assay [2] came to 0.003 s⁻¹; in assay [3], 0.012 s⁻¹; in assay [4] it was 0.018 s⁻¹; in assay [5], 0.017 s⁻¹; in assay [6], 0.00266 s⁻¹. Also, the kon in assay [2] was 600000 M⁻¹ s⁻¹; in assay [3] it was 6.2e+07 M⁻¹ s⁻¹; in assay [4], 9.7e+07 M⁻¹ s⁻¹; in assay [5], 8.6e+07 M⁻¹ s⁻¹; in assay [6], 1.07e+06 M⁻¹ s⁻¹.
